Laboratory results from CN113461812A (BEIJING LUFEI BIOTECHNOLOGY CO LTD, dated 2021).

Key:
Assay in all cases: SPR (Biacore), 1:1 binding fit
[1] = molecular target: T1, RBD突变型(K417T E484K N501Y) (SARS-CoV-2, UniProt P0DTC2 319-541)
T1 construct: domain: RBD

RBD突变型(N501Y) = molecular target: T2, RBD突变型(N501Y) (SARS-CoV-2, UniProt P0DTC2 319-541)
T2 construct: domain: RBD

[2] = molecular target: T3, RBD突变型(K417N E484K N501Y) (SARS-CoV-2, UniProt P0DTC2 319-541)
T3 construct: domain: RBD

B1: 人源化新冠病毒中和性抗体nCoV-00D (antibody, V domains shown)
VH: QVQLQQSGAELVKPGASVKLSCKTSGYTFTRYYIYWVKQRPGQGLEWIGEINPNNGGTNFNEKFKSKATLTVDKSSNTAYMQLSSLTSEDSAVYYCTIFITTVIARDYWGQGTLVTVSA
VL: DIVLTQSPASLAVSLGQRATISCRASESVEYSGTTLMQWFQQKPGQPPKLLIYAASNVESGVPARFSGSGSGTDFSLNIHPVEEDDVAMYFCHQSREVPWTFGGGTKLEIKR
notes: also called nCoV-00D抗体
Kd [1]: 0.53 pM
koff [1]: 1.98e-08 s⁻¹
kon [1]: 37400 M⁻¹ s⁻¹
Kd (RBD突变型(N501Y)): 0.246 pM
koff (RBD突变型(N501Y)): 9.51e-08 s⁻¹
kon (RBD突变型(N501Y)): 387000 M⁻¹ s⁻¹
Kd [2]: 7.91 pM
koff [2]: 2.35e-07 s⁻¹
kon [2]: 29700 M⁻¹ s⁻¹
